Results from doi:10.1101/2025.08.28.672883 (bioRxiv, 2025).

Key:
Settings in all cases: both partners purified
[1] = target: SARS-CoV-2 Omicron BA.1 spike receptor-binding domain (SARS-CoV-2 Omicron BA.1, S371L | S373P | S375F | Q493R | Q498R | N501Y | Y505H); experiment: BLI; Octet Red; […] (20 ug/ml) […]; kinetics buffer 1x PBS pH 7.4, 0.01% BSA, 0.002% Tween 20; 1:1 binding model
[2] = target: SARS-CoV-2 Omicron BA.5 spike receptor-binding domain (SARS-CoV-2 Omicron BA.5, S375F | D405N | N501Y | Y505H); experiment: crystal structure
[3] = target: SARS-CoV-2 Omicron JN.1 spike receptor-binding domain (SARS-CoV-2 Omicron JN.1, strain); experiment: BLI; Octet Red; […] (20 ug/ml) […]; kinetics buffer 1x PBS pH 7.4, 0.01% BSA, 0.002% Tween 20; 1:1 binding model
[4] = target: SARS-CoV-2 Omicron BQ.1.1 spike receptor-binding domain (SARS-CoV-2 Omicron BQ.1.1, strain); experiment: as above
[5] = target: SARS-CoV-2 Omicron XBB.1.5 spike receptor-binding domain (SARS-CoV-2 Omicron XBB.1.5, strain); experiment: as above

Measured: binding result

B1: ADI-77310 Fab (Fab, V domains shown)
VH: EVQLVESGGGLVKPGGSLRLSCAASGFTFGSYYMNWVRQAPGKGLEWVSSISEDGYSTYYPDSLKGRFTISRDSAKNSLYLQMNSLRADDTAVYYCARDFGGHTAWAGTGFTYWGQGTLVTVSS
VL: QSVLTQPPSVSGAPGQRITISCTGSSSNIGAGYDVHWYQQLPGTAPKLLIYGSSSRNSGVPDRFSGSKSGTSASLAITGLQAEDEADYYCQSYDSDLSVLYTFGTGTKVTVL
binds: [1]

B2: VYD222 Fab (Fab, V domains shown)
VH: EVQLVESGGGLVKPGGSLRLSCAASGFTFGSYEMNWVRQAPGKGLEWVSSISEDGYSTYYPDSLKGRFTISRDSAKNSLYLQMNSLRADDTAVYYCARDFGGDTAWAGTGFTYWGQGTLVTVSS
VL: QSVLTQPPSVSGAPGQRITISCTGSSSNIGAGYDVHWYQQLPGTAPKLLIYGSSSRNYGVPDRFSGSKSGTSASLAITGLQAEDEADYYCQSYDSDLGVLYTFGTGTKVTVL
binds: all assays above
